According to the supplement of paper PMC11246515:
± gives the standard deviation of the averaged measurements.

Assay: total protein half-life in vivo (active degradation + dilution); higher = more stable protein
[1] = E. coli NCM3722 delta-clpP delta-lon delta-hslV, growth: N-lim chemostat, doubling time 6 h
[2] = E. coli NCM3722 delta-clpP, growth: N-lim chemostat, doubling time 6 h
[3] = E. coli NCM3722 delta-hslV, growth: N-lim chemostat, doubling time 6 h
[4] = E. coli NCM3722 delta-lon, growth: N-lim chemostat, doubling time 6 h
[5] = E. coli NCM3722 delta-smpB, growth: N-lim chemostat, doubling time 6 h
[6] = wild type E. coli NCM3722, growth: C-lim chemostat, doubling time 3 h
[7] = wild type E. coli NCM3722, growth: C-lim chemostat, doubling time 6 h
[8] = wild type E. coli NCM3722, growth: C-lim chemostat, doubling time 12 h
[9] = wild type E. coli NCM3722, growth: N-lim chemostat, doubling time 6 h
[10] = wild type E. coli NCM3722, growth: N-lim chemostat, doubling time 12 h
[11] = wild type E. coli NCM3722, growth: P-lim chemostat, doubling time 6 h
[12] = wild type E. coli NCM3722, growth: P-lim chemostat, doubling time 12 h

Sequence	total protein half-life in vivo [1] [h]	total protein half-life in vivo [2] [h]	total protein half-life in vivo [3] [h]	total protein half-life in vivo [4] [h]	total protein half-life in vivo [5] [h]	total protein half-life in vivo [6] [h]	total protein half-life in vivo [7] [h]	total protein half-life in vivo [8] [h]	total protein half-life in vivo [9] [h]	total protein half-life in vivo [10] [h]	total protein half-life in vivo [11] [h]	total protein half-life in vivo [12] [h]
MERIVVTLGERSYPITIASGLFNEPASFLPLKSGEQVMLVTNETLAPLYLDKVRGVLEQAGVNVDSVILPDGEQYKSLAVLDTVFTALLQKPHGRDTTLVALGGGVVGDLTGFAAASYQRGVRFIQVPTTLLSQVDSSVGGKTAVNHPLGKNMIGAFYQPASVVVDLDCLKTLPPRELASGLAEVIKYGIILDGAFFNWLEENLDALLRLDGPAMAYCIRRCCELKAEVVAADERETGLRALLNLGHTFGHAIEAEMGYGNWLHGEAVAAGMVMAARTSERLGQFSSAETQRIITLLKRAGLPVNGPREMSAQAYLPHMLRDKKVLAGEMRLILPLAIGKSEVRSGVSHELVLNAIADCQSA	4.67 ± 1.3	3.73 ± 0.43	3.46 ± 0.2	3.72 ± 0.1	3.57 ± 0.046	2.77 ± 0.15	5.16 ± 0.2	8.87 ± 0.33	3.49 ± 0.091	5.447 ± 0.037	5.77 ± 0.57	10.6 ± 0.48
MSVPLILTILAGAATFIGAFLGVLGQKPSNRLLAFSLGFAAGIMLLISLMEMLPAALAAEGMSPVLGYGMFIFGLLGYFGLDRMLPHAHPQDLMQKSVQPLPKSIKRTAILLTLGISLHNFPEGIATFVTASSNLELGFGIALAVALHNIPEGLAVAGPVYAATGSKRTAILWAGISGLAEILGGVLAWLILGSMISPVVMAAIMAAVAGIMVALSVDELMPLAKEIDPNNNPSYGVLCGMSVMGFSLVLLQTAGIG [P0A8H3]	1.91	1.38	1.59 ± 0.2	2.14 ± 0.3	1.65 ± 0.083	0.41	0.83	–	1.7	2.45	–	–
MGSPSLYSARKTTLALAVALSFAWQAPVFAHGGEAHMVPMDKTLKEFGADVQWDDYAQLFTLIKDGAYVKVKPGAQTAIVNGQPLALQVPVVMKDNKAWVSDTFINDVFQSGLDQTFQVEKRPHPLNALTADEIKQAVEIVKASADFKPNTRFTEISLLPPDKEAVWAFALENKPVDQPRKADVIMLDGKHIIEAVVDLQNNKLLSWQPIKDAHGMVLLDDFASVQNIINNSEEFAAAVKKRGITDAKKVITTPLTVGYFDGKDGLKQDARLLKVISYLDVGDGNYWAHPIENLVAVVDLEQKKIVKIEEGPVVPVPMTARPFDGRDRVAPAVKPMQIIEPEGKNYTITGDMIHWRNWDFHLSMNSRVGPMISTVTYNDNGTKRKVMYEGSLGGMIVPYGDPDIGWYFKAYLDSGDYGMGTLTSPIARGKDAPSNAVLLNETIADYTGVPMEIPRAIAVFERYAGPEYKHQEMGQPNVSTERRELVVRWISTVGNYDYIFDWIFHENGTIGIDAGATGIEAVKGVKAKTMHDETAKDDTRYGTLIDHNIVGTTHQHIYNFRLDLDVDGENNSLVAMDPVVKPNTAGGPRTSTMQVNQYNIGNEQDAAQKFDPGTIRLLSNPNKENRMGNPVSYQIIPYAGGTHPVAKGAQFAPDEWIYHRLSFMDKQLWVTRYHPGERFPEGKYPNRSTHDTGLGQYSKDNESLDNTDAVVWMTTGTTHVARAEEWPIMPTEWVHTLLKPWNFFDETPTLGALKKDK	4.75	–	–	–	5.04 ± 0.69	2.69	6.4 ± 0.067	6.83	–	11.8	–	11.1 ± 0.71
MSFFISDAVAATGAPAQGSPMSLILMLVVFGLIFYFMILRPQQKRTKEHKKLMDSIAKGDEVLTNGGLVGRVTKVAENGYIAIALNDTTEVVIKRDFVAAVLPKGTMKAL [P0ADZ7]	5.95 ± 0.52	6.69 ± 0.75	5.78 ± 0.33	5.892 ± 0.037	6.28 ± 0.31	3.16 ± 0.14	6.018 ± 0.04	11.5 ± 0.56	5.64 ± 0.49	12.8 ± 2	6.55 ± 0.62	13 ± 0.39
MLLAGSSLLTLLDDIATLLDDISVMGKLAAKKTAGVLGDDLSLNAQQVSGVRANRELPVVWGVAKGSLINKVILVPLALIISAFIPWAITPLLMIGGAFLCFEGVEKVLHMLEARKHKEDPAQSQQRLEKLAAQDPLKFEKDKIKGAIRTDFILSAEIVAITLGIVAEAPLLNQVLVLSGIALVVTVGVYGLVGVIVKIDDLGYWLAEKSSALMQALGKGLLIIAPWLMKALSIVGTLAMFLVGGGIVVHGIAPLHHAIEHFAGQQSAVVAMILPTVLNLILGFIIGGIVVLGVKAVEKMRGQAH	5.24 ± 0.46	–	5.53 ± 0.22	5.52 ± 0.47	5.54 ± 0.83	3.16 ± 0.37	5.92 ± 1.3	10.3 ± 1.3	5.79 ± 0.4	12.22 ± 0.064	5.22 ± 0.29	10.4 ± 0.92
MAVNLLKKNSLALVASLLLAGHVQATELLNSSYDVSRELFAALNPPFEQQWAKDNGGDKLTIKQSHAGSSKQALAILQGLKADVVTYNQVTDVQILHDKGKLIPADWQSRLPNNSSPFYSTMGFLVRKGNPKNIHDWNDLVRSDVKLIFPNPKTSGNARYTYLAAWGAADKADGGDKGKTEQFMTQFLKNVEVFDTGGRGATTTFAERGLGDVLISFESEVNNIRKQYEAQGFEVVIPKTNILAEFPVAWVDKNVQANGTEKAAKAYLNWLYSPQAQTIITDYYYRVNNPEVMDKLKDKFPQTELFRVEDKFGSWPEVMKTHFTSGGELDKLLAAGRN	4.09 ± 0.2	5.26 ± 0.17	6.24 ± 0.08	6.861 ± 0.011	5.74 ± 0.07	3.3 ± 0.27	6.1057 ± 0.00027	10 ± 0.37	6.338 ± 0.056	12.8 ± 0.46	6.18 ± 0.1	12.4 ± 0.31
MKRAVITGLGIVSSIGNNQQEVLASLREGRSGITFSQELKDSGMRSHVWGNVKLDTTGLIDRKVVRFMSDASIYAFLSMEQAIADAGLSPEAYQNNPRVGLIAGSGGGSPRFQVFGADAMRGPRGLKAVGPYVVTKAMASGVSACLATPFKIHGVNYSISSACATSAHCIGNAVEQIQLGKQDIVFAGGGEELCWEMACEFDAMGALSTKYNDTPEKASRTYDAHRDGFVIAGGGGMVVVEELEHALARGAHIYAEIVGYGATSDGADMVAPSGEGAVRCMKMAMHGVDTPIDYLNSHGTSTPVGDVKELAAIREVFGDKSPAISATKAMTGHSLGAAGVQEAIYSLLMLEHGFIAPSINIEELDEQAAGLNIVTETTDRELTTVMSNSFGFGGTNATLVMRKLKD [P0A953]	5.27 ± 0.45	5.06 ± 0.069	4.81 ± 0.16	4.98 ± 0.26	4.81 ± 0.049	2.99 ± 0.039	6.06 ± 0.36	10.8 ± 0.81	4.78 ± 0.11	8.39 ± 0.45	5.89 ± 0.25	12.3 ± 0.21
MRHSVLFATAFATLISTQTFAADLPGKGITVNPVQSTITEETFQTLLVSRALEKLGYTVNKPSEVDYNVGYTSLASGDATFTAVNWTPLHDNMYEAAGGDKKFYREGVFVNGAAQGYLIDKKTADQYKITNIAQLKDPKIAKLFDTNGDGKADLTGCNPGWGCEGAINHQLAAYELTNTVTHNQGNYAAMMADTISRYKEGKPVFYYTWTPYWVSNELKPGKDVVWLQVPFSALPGDKNADTKLPNGANYGFPVSTMHIVANKAWAEKNPAAAKLFAIMQLPVADINAQNAIMHDGKASEGDIQGHVDGWIKAHQQQFDGWVNEALAAQK [P0AFM2]	–	4.96 ± 0.067	6.88 ± 1.4	5.41	5.41 ± 0.17	3.5 ± 0.29	6.36	5.21	–	11.2	6.38	13.1
MSSISLIQPDRDLFSWPQYWAACFGPAPFLPMSREEMDQLGWDSCDIILVTGDAYVDHPSFGMAICGRMLEAQGFRVGIIAQPDWSSKDDFMRLGKPNLFFGVTAGNMDSMINRYTADRRLRHDDAYTPDNVAGKRPDRATLVYTQRCKEAWKDVPVILGGIEASLRRTAHYDYWSDTVRRSVLVDSKADMLMFGNGERPLVEVAHRLAMGEPISEIRDVRNTAIIVKEALPGWSGVDSTRLDTPGKIDPIPHPYGEDLPCADNKPVAPKKQEAKAVTVQPPRPKPWEKTYVLLPSFEKVKGDKVLYAHASRILHHETNPGCARALMQKHGDRYVWINPPAIPLSTEEMDSVFALPYKRVPHPAYGNARIPAYEMIRFSVNIMRGCFGGCSFCSITEHEGRIIQSRSEDSIINEIEAIRDTVPGFTGVISDLGGPTANMYMLRCKSPRAEQTCRRLSCVYPDICPHMDTNHEPTINLYRRARDLKGIKKILIASGVRYDIAVEDPRYIKELATHHVGGYLKIAPEHTEEGPLSKMMKPGMGSYDRFKELFDTYSKQAGKEQYLIPYFISAHPGTRDEDMVNLALWLKKHRFRLDQVQNFYPSPLANSTTMYYTGKNPLAKIGYKSEDVFVPKGDKQRRLHKALLRYHDPANWPLIRQALEAMGKKHLIGSRRDCLVPAPTIEEMREARRQNRNTRPALTKHTPMATQRQTPATAKKASSTQSRPVNAGAKKRPKAAVGR	5.41 ± 1.1	1.08	–	0.614	–	0.206	–	–	–	–	–	1.72
MIKSALLVLEDGTQFHGRAIGATGSAVGEVVFNTSMTGYQEILTDPSYSRQIVTLTYPHIGNVGTNDADEESSQVHAQGLVIRDLPLIASNFRNTEDLSSYLKRHNIVAIADIDTRKLTRLLREKGAQNGCIIAGDNPDAALALEKARAFPGLNGMDLAKEVTTAEAYSWTQGSWTLTGGLPEAKKEDELPFHVVAYDFGAKRNILRMLVDRGCRLTIVPAQTSAEDVLKMNPDGIFLSNGPGDPAPCDYAITAIQKFLETDIPVFGICLGHQLLALASGAKTVKMKFGHHGGNHPVKDVEKNVVMITAQNHGFAVDEATLPANLRVTHKSLFDGTLQGIHRTDKPAFSFQGHPEASPGPHDAAPLFDHFIELIEQYRKTAK [P0A6F1]	4.95 ± 1	4.51 ± 0.39	4.72 ± 0.13	5.36 ± 0.35	4.6318 ± 0.0031	3.18 ± 0.27	–	9.87 ± 0.035	4.466 ± 0.015	7.43 ± 0.44	5.95 ± 0.087	12.1 ± 0.28
MQEGQNRKTSSLSILAIAGVEPYQEKPGEEYMNEAQLAHFRRILEAWRNQLRDEVDRTVTHMQDEAANFPDPVDRAAQEEEFSLELRNRDRERKLIKKIEKTLKKVEDEDFGYCESCGVEIGIRRLEARPTADLCIDCKTLAEIREKQMAG [P0ABS1]	6.12 ± 0.34	6.26 ± 1.2	3.53 ± 0.55	3.95 ± 0.44	3.12 ± 0.035	1.68 ± 0.14	3.27 ± 0.28	5.07 ± 0.47	3.65 ± 0.58	7.03 ± 0.073	3.71 ± 0.66	9.06 ± 0.61
MNKLIELRRAKRLALSLLLIAAATFVVTLFLPPNFWVSGVKAIAEAAMVGALADWFAVVALFRRVPIPIISRHTAIIPRNKDRIGENLGQFVQEKFLDTQSLVALIRRHEPALLIGNWFSQPENARRVGQHLLQIMSGFLELTDDARIQRLLKRAVHRAIDKVDLSGTSALMLESMTKNDRHQVLLDTLIAQLIALLQRDKSRKFIAQQIVRWLESEHPLKAKILPTEWLGEHSAELVSDAVNSLLDDISRDRAHQIRHAFDRATFALIDKLKNDPEMAARADAVKSYLKEDEAFNRYLSELWGDLREWLKVDINSEDSRVKERIARAGQWFGETLIADDALRASLNGHLEQAAHRVAPEFSAFLTRHISDTVKSWDARDMSRQIELNIGKDLQFIRVNGTLVGGCIGLILYLLSQLPALFPLGNF	5.72 ± 0.23	–	6.12 ± 0.14	5.6 ± 0.16	5.794 ± 0.016	3.17 ± 0.071	5.3 ± 0.096	12.3 ± 2.3	6.365 ± 0.03	12.37 ± 0.058	5.7 ± 0.39	12.4 ± 1.6
MRGEFYQQLTNDLETARAEGLFKEERIITSAQQADITVADGSHVINFCANNYLGLANHPDLIAAAKAGMDSHGFGMASVRFICGTQDSHKELEQKLAAFLGMEDAILYSSCFDANGGLFETLLGAEDAIISDALNHASIIDGVRLCKAKRYRYANNDMQELEARLKEAREAGARHVLIATDGVFSMDGVIANLKGVCDLADKYDALVMVDDSHAVGFVGENGRGSHEYCDVMGRVDIITGTLGKALGGASGGYTAARKEVVEWLRQRSRPYLFSNSLAPAIVAASIKVLEMVEAGSELRDRLWANARQFREQMSAAGFTLAGADHAIIPVMLGDAVVAQKFARELQKEGIYVTGFFYPVVPKGQARIRTQMSAAHTPEQITRAVEAFTRIGKQLGVIA [P0AB77]	5.66 ± 1.2	4.59 ± 0.16	4.78 ± 0.57	4.56 ± 0.44	4.39 ± 0.082	3.46 ± 0.59	5.66 ± 0.2	–	4.55 ± 0.25	6.84 ± 0.5	6.03 ± 0.29	11.11 ± 0.03
